First the molecules themselves.
B1: Biotinylated full length PcrA (Geobacillus stearothermophilus), wild type [modified: biotin; biotin] [Geobacillus stearothermophilus] / YvgS/HelD (SF1 helicase), Bacillus subtilis [B. subtilis 168 (endogenous in the cell … (parent)
chain 1: MNFLSEQLLAHLNKEQQEAVRTTEGPLLIMAGAGSGKTRVLTHRIAYLMAEKHVAPWNILAITFTNKAAREMRERVQSLLGGAAEDVWISTFHSMCVRILRRDIDRIGINRNFSILDPTDQLSVMKTILKEKNIDPKKFEPRTILGTISAAKNELLPPEQFAKRASTYYEKVVSDVYQEYQQRLLRNHSLDFDDLIMTTIQLFDRVPDVLHYYQYKFQYIHIDEYQDTNRAQYTLVKKLAERFQNICAVGDADQSIYRWRGADIQNILSFERDYPNAKVILLEQNYRSTKRILQAANEVIEHNVNRKPKRIWTENPEGKPILYYEAMNEADEAQFVAGRIREAVERGERRYRDFAVLYRTNAQSRVMEEMLLKANIPYQIVGGLKFYDRKEIKDILAYLRVIANPDDDLSLLRIINVPKRGIGASTIDKLVRYAADHELSLFEALGELEMIGLGAKAAGALAAFRSQLEQWTQLQEYVSVTELVEEVLDKSGYREMLKAERTIEAQSRLENLDEFLSVTKHFENVSDDKSLIAFLTDLALISDLDELDGTEQAAEGDAVMLMTLHAAKGLEFPVVFLIGMEEGIFPHNRSLEDDDEMEEERRLAYVGITRAEEELVLTSAQMRTLFGNIQMDPPSRFLNEIPAHLLETASRRQAGASRPAVSRPQASGAVGSWKVGDRANHRKWGIGTVVSVRGGGDDQELDIAFPSPIGIKRLLAKFAPIEKV
chain 2: MNQQDKEWKEEQSRIDEVLKELEKKERFLETSAGGLKHDIIGLRKSFWEDVKVNFDDAHEAIETMASIKQQAELLSDREHNHRRMDQQLKRIHQLKKSPYFGRIDFIENGEEQAERIYIGLASCLDEKEEHFLIYDWRAPISSLYYNYSPGKAEYEVPGETIEGEMVLKRQFMIKNGTLKAMFNTDMTIGDEMLQEVLSHHSDTQMKNIVSTIQKEQNQIIRNEKSKILIVQGAAGSGKTSAALQRVAYLLYRHRGVIDAGQIVLFSPNFLFNSYVSSVLPELGEENMEQATFQEYIEHRLGRKFKCESPFDQLEYCLTETKGGDFPTRLAGITWKAGLSFQQFINEYVTRLSSEGMIFKNIIFRGQKLITKEQIQSYFYSLDQNHSIPNRMEQTAKWLLSELNKLEKKERRKDWVVHEAELLDKEDYLDVYKKLQERKRFSESTFNDYQREQQLLAAIIVKKAFKPLKQAVRLLAFLDVTQLYLQLFSGWGGKFQHEKMDAIGELTRSAFTDNKLLYEDAAPFLYMQDLIEGRKKNTKIKHLFIDEAQDYSPFQMAYMRSIFPAASMTVLGDINQSIYAHTINGDQRMDACFEDEPAEYVRLKRTYRSTRQIVEFTKAMLQDGADIEPFNRSGEMPLVVKTEGHESLCQKLAQEIGRLKKKGHETIAVICKTAHQCIQAHAHMSEYTDVRLIHKENQPFQKGVCVIPVYLAKGIEFDAVLVYDASEEHYHTEHDRRLLYTACTRAMHMLAVFYTGEASPFVTAVPPHLYQIAE

In this test the parent is B1. Nature of the test: pulldown quantified by mass spectrometry. Conditions: with YvgS/HelD (SF1 helicase), parent: 97, read off a plot.
Turning to chain 1 K712A, the screen value was determined as 9.5. As for chain 1 L714A, the figure is 3.5.

These data come from paper PMC5397179.
